B3: HGF-α (domain or fragment, UniProt P14210 32-473, looked up)
chain: QRKRRNTIHEFKKSAKTTLIKIDPALKIKTKKVNTADQCANRCTRNKGLPFTCKAFVFDKARKQCLWFPFNSMSSGVKKEFGHEFDLYENKDYIRNCIIGKGRSYKGTVSITKSGIKCQPWSSMIPHEHSFLPSSYRGKDLQENYCRNPRGEEGGPWCFTSNPEVRYEVCDIPQCSEVECMTCNGESYRGLMDHTESGKICQRWDHQTPHRHKFLPERYPDKGFDDNYCRNPDGQPRPWCYTLDPHTRWEYCAIKTCADNTMNDTDVPLETTECIQGQGEGYRGTVNTIWNGIPCQRWDSQYPHEHDMTPENFKCKDLRENYCRNPDGSESPWCFTTDPNIRVGYCSQIPNCDMSHGQDCYRGNGKNYMGNLSQTRSGLTCSMWDKNMEDLHRHIFWEPDASKLNENYCRNPDDDAHGPWCYTGNPLIPWDYCPISRCEGDT

Key:
Experiment in all cases: ELISA
[1] = target: Decoy Met (UniProt P08581 25-932)
[2] = target: IPT (UniProt P08581 563-932)
[3] = target: B3
[4] = target: active HGF (UniProt P14210 32-494; P14210 495-728)
Chain of active HGF (P14210 495-728, one chain of several): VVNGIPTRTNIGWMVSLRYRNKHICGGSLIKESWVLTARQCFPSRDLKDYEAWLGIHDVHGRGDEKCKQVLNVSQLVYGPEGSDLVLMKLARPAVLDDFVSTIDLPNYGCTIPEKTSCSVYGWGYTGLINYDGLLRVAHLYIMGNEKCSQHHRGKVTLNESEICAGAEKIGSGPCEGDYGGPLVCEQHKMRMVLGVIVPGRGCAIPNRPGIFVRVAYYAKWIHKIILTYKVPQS

B1: HGF NK1 (domain or fragment, UniProt P14210-1 32-205, looked up)
chain: QRKRRNTIHEFKKSAKTTLIKIDPALKIKTKKVNTADQCANRCTRNKGLPFTCKAFVFDKARKQCLWFPFNSMSSGVKKEFGHEFDLYENKDYIRNCIIGKGRSYKGTVSITKSGIKCQPWSSMIPHEHSFLPSSYRGKDLQENYCRNPRGEEGGPWCFTSNPEVRYEVCDIPQ
For B1, the “fold reduced affinity compared with active HGF” value [1] was 10 fold and the “fold less tightly than active HGF” value [2] was 10 times.

B2: IPT Δ1 (domain or fragment, UniProt P08581 657-932, looked up)
chain: PVITSISPKYGPMAGGTLLTLTGNYLNSGNSRHISIGGKTCTLKSVSNSILECYTPAQTISTEFAVKLKIDLANRETSIFSYREDPIVYEIHPTKSFISGGSTITGVGKNLNSVSVPRMVINVHEAGRNFTVACQHRSNSEIICCTTPSLQQLNLQLPLKTKAFFMLDGILSKYFDLIYVHNPVFKPFEKPVMISMGNENVLEIKGNDIDPEAVKGEVLKVGNKSCENIHLHSEAVLCTVPNDLLKLNSELNIEWKQAISSTVLGKVIVQPDQNFT
B2: binds [3].

B3 was tested, and the “fold reduced affinity compared with active HGF” value [1] was 4 fold.

B4: PSI-IPT (domain or fragment, UniProt P08581 516-932, looked up)
chain: NGLGCRHFQSCSQCLSAPPFVQCGWCHDKCVRSEECLSGTWTQQICLPAIYKVFPNSAPLEGGTRLTICGWDFGFRRNNKFDLKKTRVLLGNESCTLTLSESTMNTLKCTVGPAMNKHFNMSIIISNGHGTTQYSTFSYVDPVITSISPKYGPMAGGTLLTLTGNYLNSGNSRHISIGGKTCTLKSVSNSILECYTPAQTISTEFAVKLKIDLANRETSIFSYREDPIVYEIHPTKSFISGGSTITGVGKNLNSVSVPRMVINVHEAGRNFTVACQHRSNSEIICCTTPSLQQLNLQLPLKTKAFFMLDGILSKYFDLIYVHNPVFKPFEKPVMISMGNENVLEIKGNDIDPEAVKGEVLKVGNKSCENIHLHSEAVLCTVPNDLLKLNSELNIEWKQAISSTVLGKVIVQPDQNFT
B4: binds [4].

— PMC2475716 (The Journal of Biological Chemistry, 2008)
